Patent publication US20040204561A1 (published 2004)
Ends that are not written are not given here. bbDTPA = DTPA chelating ligand bonded through a carbon of its ethylene backbone

What was measured:
[1] = target: the molecule itself; assay: self-association, observation of solutions
Excerpt: First, solutions of EP 1272L (FW=2,243 Da) were concentrated and purified by centrifugation in a filter device with a nominal molecular weight limit of 300,000 Da. The formation of high molecular weight aggregates allowed EP1272L to be retained by the filter device. […] Third, SEC-LS column retention and light scattering measurements of EP1272L were consistent with a large species having a mass distribution of 4×10⁶ to 13×10⁶ Da, and a hydrodynamic radius in the range of 155 nm to 210 nm.

[2] = target: T1, streptavidin (on magnetic beads) (UniProt P22629 37-163, limits assumed); assay: capture on streptavidin magnetic beads, gadolinium ICP
T1 construct: also called streptavidin beads; streptavidin-coated beads
T1 sequence (P22629 37-163 limits assumed): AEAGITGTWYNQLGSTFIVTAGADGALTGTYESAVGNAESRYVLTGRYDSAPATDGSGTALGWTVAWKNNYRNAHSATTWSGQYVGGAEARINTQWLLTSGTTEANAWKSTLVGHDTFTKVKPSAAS
Procedure: The three EP1595/EP1272 formulations, one EP1596/EP1272 formulation, and an EP1272 formulation were assayed for affinity to streptavidin magnetic beads. Each sample was diluted so as to maintain a constant ratio of biotinylated peptide and streptavidin binding sites in the assay. Solutions without biotin were treated as though they contained 0.5% EP1595. After several rinses the magnetic beads were digested in acid. The extent of capture was quantified by gadolinium ICP.

B1: EP1272L (peptide)
peptide: bbDTPA-GAEAEAKAKAEAEAKAK
modifications: also: bbDTPA complexed to Gd(III)
notes: also called EP1272L aggregates alone; EP1272 formulation
binding result [1]: binds
binding result [2]: binds
